Assay: soluble on expression in E. coli; label from the status in PepcDB or PDB records

Row | Sequence | soluble on expression in E. coli
1 | MGSDKIHHHHHHVSDSPLPDSETSAAAEFKVDNCALVLEGGGLRAIYTAGVLDAFLAAGIHFQYLVGVSAGAIYPASYLSRQMGRNLTIQQNFLADKRYMGLKHLLRTGNYVNTDFTYRRMAHELVPYDFDAFASSEAEFKVGAFNCLTGETDFFGMADFADHDTFLEVLIASSSLPFISKPTFIDGTPYLDGGIGAPIPLAQAREDGYKRQVVILTQEQDYRKSAFKAKWLAKRLYRRYPKVASALLARHQVYNQALDDLTKAQADGSALVLQPATPMGLSRLERDVSKVEAVYRRGLSEGEAFIPSLLAFIENC | not soluble
2 | EHRKVERGILAYQPGKLLVRGDTPLFKIERLLGIDLDHIEAETLAGLIYETLKRVPEEEEQMEVEGLRIIIKKMKGPKIVLAKVLKLD | not soluble
3 | MNKTILALDTATEACSVALLHNGNITTLDELSPRNHTQRILPMVDELLSQANISIKQVDVLAFGRGPGSFTGVRVGVSVAQGLALGANLPVVAISNLLAMAQAAYQQLRANNVIALIDARMNEVYFAQYQRIGEHWHTIVEEQVCSPETAIAQMKINDNSVVVGTGWAAYPQFYVAKLPLSVSDISLPSAKDMLELALKAVENGELQTALDIEPIYLRNEVTWQKLPHKRLEHHHHHH | soluble
4 | MQSEKIAQLKAALQNFSASNSDLFDYALEEEKAKVRKRALLLLDQRARSVYELTNRLISADFDPNIVEYVVEDLVRANLLNDENFSREWVRQRRQRRGKSRQALTRELRDKGIKSEIIADVVGDIQPEDEQDIARELAYKKVRSLKKEPCDYPEYQKVLRRTVGVLARRGFSQSMALEIAREAIDARIDEIRR | not soluble
5 | MAGHQISFAKEVQPIIETKCLSCHSCFDAPCQLKLESAESLLRGASQEPVYSSARTTEMKPTRLGIDELTVAGWRKRGFYSVLQSDREHAQSLLKNMITLGKQYPFPPNSKLPDSIKTGFARKNQCVSEEEFPGYAHDHPFEGMPFGTSGLTDREYSLLAGWLNQGAAVTDEPVTLTRDEEQTIRTWETLFNRDDKRGRLVARWLYEHLFLAYLYFPEAGDEPRFFELLRSSTPSGEAIIPVATVSPNSDPGGPFFYRLRPISGTIVHKRRISYPLDQMKLRRISELFFSEDWPVGDLPGYDYTERSNPFVTFAAIPARARYQFMLDEAEYFVRTFIHGPVCRGQIATDVIRDHFWTLFQSPESDLFITADTYRRQAIPLLGIPGQDDDLLDAGENWLRYLKRHNDYLALRQQHYVAQQPQGASLAHIWNGDGHNENALLTIFRHHNSASVVRGLAGAVPQTIWLMDYPLLEQTYYQLVVNFNVFGNVAHQVLTRLYFDLIRNGSEQNFVRLLPAGQRKTILNDWYQDLGKLKFGIVYEDIDDRSPSAERFVTENPKLELASHMLERFQSINTLSHDPLNRCEQGNCSRIDQPHWIQQADRALSGIAAQPAASLPGISLLPEVTFVRVQHGQNERTVYTLLRDRAHSNVAFMLGEELRYQPEKDRVTVYPGITGSYPNFMFDVPAAQVGEFVAKLSKAGKIKDFEQIVETWGIRRTHPQFWEILHDITAWQKQQQPLQAGIFDINRYENFLEHHHHHH | not soluble
6 | MDDYVPIPFTLLKLPQKSIDVVLRRMCIEALVELSFTSKAAMQQTKHLGIKTERFIIAINSNEILIDVSGCRDFRFYTFECSTPSHHTVQKPIRVHVGFRGERWETPFFGVRQFLNHLMEIFHQTKLDSLHISTADPECSNELKGMEFGWLSMMSMTSDNNSSQDEDALRQFSGKTDSICLNRNPFSIEPSKQMQMILTRNMNVVSTKCDLNDVFVTNARSFTAFLKIEDVNIFLKHWMHRSDRKLKSAWFDLDAFRWDVEDVLEPLFKGIAYHVAPADREFIVHLPKKLSGCGDYRVIGGYDVRRNDGMTATIIVADRANVFLKMFFWI | not soluble
7 | MNNLKLDIVEQDDKAIVRVQGDIDAYNSSELKEQLRNFISTTSKKKIVLDLSSVSYMDSAGLGTLVVILKDAKINGKEFILSSLKESISRILKLTHLDKIFKITDTVEEA | soluble
8 | MSLKEKSVINAVKAEILVEKLVDKLMKEQELNPSEDILRAYYEFYKREFYRPSSVKLLGIYVKSKKEAERISQILKQGEVPSTEDVKVSKPLWYSIPTLPKYIRRNFRTLSVGEVSKPIKINDGYLVFKILDKKPAGFIPFERAKSLVKKMYLKEKRKEVFKKWLSEVLKKYQVRSTGKTCNTFISRFFFRKVNRQGEGHHHHHH | not soluble
9 | VRSRNGGATKIVREHYLRSDIPCLSRSCTKCPQIVVPDAQNELPKFILSDSPLELSAPIGKHYVVLDTNVVLQAIDLLENPNCFFDVIVPQIVLDEVRNKSYPVYTRLRTLCRDSDDHKRFIVFHNEFSEHTFVERLPNETINDRNDRAIRKTCQWYSEHLKPYDINVVLVTNDRLNREAATKEVESNIITKSLVQYIELLPNADDIRDSIPQMDSFDKDLERDTFSDFTFPEYYSTARVMGGLKNGVLYQGNIQISEYNFLEGSVSLPRFSKPVLIVGQKNLNRAFNGDQVIVELLPQSEWKAPSSIVLDSEHFDVNDNPDIEAGDDDDNNESSSNTTVISDKQRRLLAKDAMIAQRSKKIQPTAKVVYIQRRSWRQYVGQLAPSSVDPQSSSTQNVFVILMDKCLPKVRIRTRRAAELLDKRIVISIDSWPTTHKYPLGHFVRDLGTIESAQAETEALLLEHDVEYRPFSKKVLECLPAEGHDWKAPTKLDDPEAVSKDPLLTKRKDLRDKLICSIDPPGCVDINDALHAKKLPNGNWEVGVHIADVTHFVKPGTALDAEGAARGTSVYLVDKRIDMLPMLLGTDLCSLKPYVDRFAFSVIWELDDSANIVNVNFMKSVIRSREAFSYEQAQLRIDDKTQNDELTMGMRALLKLSVKLKQKRLEAGALNLASPEVKVHMDSETSDPNEVEIKKLLATNSLVEEFMLLANISVARKIYDAFPQTAMLRRHAAPPSTNFEILNEMLNTRKNMSISLESSKALADSLDRCVDPEDPYFNTLVRIMSTRCMMAAQYFYSGAYSYPDFRHYGLAVDIYTHFTSPIRRYCDVVAHRQLAGAIGYEPLSLTHRDKNKMDMICRNINRKHRNAQFAGRASIEYYVGQVMRNNESTETGYVIKVFNNGIVVLVPKFGVEGLIRLDNLTEDPNSAAFDEVEYKLTFVPTNSDKPRDVYVFDKVEVQVRSVMDPITSKRKAELLLK | soluble
10 | GMKVTNYQGATIDPYSKGLGMVPGTSIQLTDAARLEWNLLNEDVSLPAAVLYADRVEHNLKWMQAFVAEYGVKLAPHGKTTMAPQLFRRQLETGAWGITLATAHQVRAAYHGGVSRVLMANQLVGRRNMMMVAELLSDPEFEFFCLVDSVEGVEQLGEFFKSVNKQLQVLLELGVPGGRTGVRDAAQRNAVLEAITRYPDTLKLAGVELYEGVLKEEHEVREFLQSAVAVTRELVEQERFARAPAVLSGAGSAWYDVVAEEFVKASETGKVEVVLRPGCYLTHDVGIYRKAQTDIFARNPVAKKMGEGLLPALQLWAYVQSIPEPDRAIIGLGKRDSAFDAGMPEPARHYRPGNEAPRDIAASEGWEIFGLMDQHAYLRIPAGADLKVGDMIAFDISHPCLTFDKWRQVLVVDPAYRVTEVIETFF | soluble
11 | MCSKQSANQQISYRQTAEATLDKGMDNQPEAPYWFPKQLLKWQLSKDKAAKYNTASVPLAKRIDKWQLPTVNKTQDPKMKVVALSIMNSSTSGNAPRGINTFDANVFSNWQYIDQLVYWGGSAGEGLIVPPTADVIDSAHKNGVPVLGTVFFPQVVSGGKLKWLNDFLKQDADGHFPMADKLVAVAKAYGFDGWFINQETDPEVKSFDSASTGKTATSSTSNGLSKKHAQLMQQLIKEYKQKAGSKLDLMWYDSMTKDGKMDWQNALTKENQSYLVDANMKPVADSMFLNFWWTKKRLASQELLKKSHERAEKLGISPYNLFAGIDVQADGTATPVRWNLFANKQHVPYTSLGLYAPDWTHASSDTVDEFQAKEGALWVNDQNDPSRSIPSTTSTHWPGVSTYAVEQSAITKQPFVTNFSLGNGYNYFIKLEHHHHHH | not soluble
12 | MAGDPMGNSSTKGSADSKGDKLHVVTTFYPMYEFTKQIVKDKGDVDLLIPSSVEPHDWEPTPKDIANIQDADLFVYNSEYMETWVPSAEKSMGQGHAVFVNASKGIDLMEGSEEEHEEHDHGEHEHSHAMDPHVWLSPVLAQKEVKNITAQIVKQDPDNKEYYEKNSKEYIAKLQDLDKLYRTTAKKAEKKEFITQHTAFGYLAKEYGLKQVPIAGLSPDQEPSAASLAKLKTYAKEHNVKVIYFEEIASSKVADTLASEIGAKTEVLNTLEGLSKEEQDKGLGYIDIMKQNLDALKDSLLVKSLEHHHHHH | soluble

Reference: the DeepSol protein solubility set
